Tests used:
Assay in all cases: EMSA
Rad52 = Rad52 (Saccharomyces cerevisiae, UniProt P06778)
Rad52 (K43,44R) = Rad52 (K43,44R) (Saccharomyces cerevisiae, UniProt P06778 1-471, K10R;K11R)
Rad52 (K253R) = Rad52 (K253R) (Saccharomyces cerevisiae, UniProt P06778 1-471, K220R)
Rad52 (K43,44,253R) = Rad52 (K43,44,253R) (Saccharomyces cerevisiae, UniProt P06778 1-471, K10R;K11R;K220R)

Measured: binding result

AGCTACCATGCCTGCACGAATTAAGCAATTCGTAATCATGGTCATAGCT (ssDNA) [49-mer ssDNA (Oligo-3)]
binds: all assays above
